This is an account of results in the supplement of paper PMC10567573.

Sequences and labels used below:
B1: INTS4 (parent)
chain: AKQIMEETYKMEFMYSGVENKQVV
B2: RHOBTB3 (parent)
chain: GGADIIVIKYNVNDKFSFHEVKDN
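Also: lentivirally expressed fusions sorted by FACS into six bins by GFP to DsRed ratio, PSI derived from sequencing read proportions per bin multiplied by bin number.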

The variants in one series derive from B1. The series can be described thus: protein stability index of a GFP-peptide fusion (GPS, HEK-293T) (PSI 1-6); higher = more stable. The settings on record: c terminus: a fixed tail appended.
As for AKQIMEETYKMEFMYSGVENGQVV [K21G], the protein stability index amounted to 2.5.

For AKQIMEETYKMEFMYSGVENNQVV [K21N], the protein stability index was 2.25.

With AKQIMEETYKMEFMYSGVENSQVV [K21S], the protein stability index worked out at 2.51.

On to AKQIMEETYKMEFMYSGVENFQVV [K21F], for which the protein stability index was determined as 3.8.

In the case of AKQIMEETYKMEFMYSGVENMQVV [K21M], the protein stability index came out at 2.07.

AKQIMEETYKMEFMYSGVENCQVV [K21C]: the protein stability index came to 1.92.

In the case of AKQIMEETYKMEFMYSGVENPQVV [K21P], the protein stability index came to 2.99.

With AKQIMEETYKMEFMYSGVENHQVV [K21H], the protein stability index worked out at 1.75.

As to AKQIMEETYKMEFMYSGVENKQVW [V24W], the protein stability index was determined as 2.33.

Regarding AKQIMEETYKMEFMYSGVENKQVT [V24T], the protein stability index turned out to be 1.72.

On to AKQIMEETYKMEFMYSGVENKQVK [V24K], for which the protein stability index was found to be 1.98.

Regarding AKQIMEETYKMEFMYSGVENKQVY [V24Y], the protein stability index worked out at 2.01.

Turning to AKQIMEETYKMEFMYSGVENKQVI [V24I], the protein stability index is 1.51.

Turning to AKQIMEETYKMEFMYSGVENKQVN [V24N], the protein stability index was 2.44.

Turning to AKQIMEETYKMEFMYSGVENKQVD [V24D], the protein stability index came to 2.56.

With AKQIMEETYKMEFMYSGVENKQVH [V24H], the protein stability index worked out at 1.65.

With AKQIMEETYKMEFMYSGVENKQVQ [V24Q], the protein stability index came to 1.89.

As to AKQIMEETYKMEFMYSGVENKQVE [V24E], the protein stability index is 1.78.

In the case of AKQIMEETYKMEFMYSGVENKQVL [V24L], the protein stability index turned out to be 1.73.

Take AKQIMEETYKMEFMYSGVENKQVA [V24A]: the protein stability index amounted to 1.75.

On to AKQIMEETYKMEFMYSGVENKQVP [V24P], for which the protein stability index turned out to be 2.54.

Consider AKQIMEETYKMEFMYSGVENKHVV [Q22H], for which the protein stability index was 1.98.

For the variant AKQIMEETYKMEFMYSGVENKWVV [Q22W], the protein stability index stood at 1.02.

On to AKQIMEETYKMEFMYSGVENKCVV [Q22C], for which the protein stability index came to 2.97.

AKQIMEETYKMEFMYSGVENKNVV [Q22N]: the protein stability index is 1.31.

AKQIMEETYKMEFMYSGVENKKVV [Q22K]: the protein stability index was 1.47.

For the variant AKQIMEETYKMEFMYSGVENKEVV [Q22E], the protein stability index worked out at 1.48.

As for AKQIMEETYKMEFMYSGVENKQTV [V23T], the protein stability index was 1.46.

Take AKQIMEETYKMEFMYSGVENKQFV [V23F]: the protein stability index was 1.16.

As for AKQIMEETYKMEFMYSGVENKQEV [V23E], the protein stability index was determined as 1.97.

As to AKQIMEETYKMEFMYSGVENKQPV [V23P], the protein stability index is 1.42.

For AKQIMEETYKMEFMYSGVENKQKV [V23K], the protein stability index was determined as 1.71.

Consider AKQIMEETYKMEFMYSGVENKQHV [V23H], for which the protein stability index came to 1.88.

In the case of AKQIMEETYKMEFMYSGVENKQSV [V23S], the protein stability index turned out to be 1.76.

For AKQIMEETYKMEFMYSGVENKQGV [V23G], the protein stability index turned out to be 1.32.

Consider AKQIMEETYKMEFMYSGVENKQMV [V23M], for which the protein stability index came out at 3.75.

With AKQIMEETYKMEFMYSGVENKQDV [V23D], the protein stability index came out at 1.68.

Take AKQIMEETYKMEFMYSGVENKQRV [V23R]: the protein stability index turned out to be 1.95.

As for AKQIMEETYKMEFMYSGVENKQAV [V23A], the protein stability index is 1.8.

For AKQIMEETYKMEFMYSGVENKQCV [V23C], the protein stability index was 1.6.

On to AKQIMEETYKMEFMYSGVENKQNV [V23N], for which the protein stability index is 2.18.

In the case of AKQIMEETYKMEFMYSGVENKQIV [V23I], the protein stability index amounted to 2.2.

Take AKQIMEETYKMEFMYSGWENKQVV [V18W]: the protein stability index was found to be 1.95.

Consider AKQIMEETYKMEFMYSGTENKQVV [V18T], for which the protein stability index stood at 1.71.

Turning to AKQIMEETYKMEFMYSGYENKQVV [V18Y], the protein stability index turned out to be 1.9.

AKQIMEETYKMEFMYSGVGNKQVV [E19G]: the protein stability index came to 1.9.

With AKQIMEETYKMEFMYSGVYNKQVV [E19Y], the protein stability index was 1.09.

As for AKQIMEETYKMEFMYSGVANKQVV [E19A], the protein stability index came to 2.52.

Turning to AKQIMEETYKMEFMYSGVKNKQVV [E19K], the protein stability index came out at 1.07.

Regarding AKQIMEETYKMEFMYSGVVNKQVV [E19V], the protein stability index amounted to 1.28.

For AKQIMEETYKMEFMYSGVHNKQVV [E19H], the protein stability index was determined as 2.06.

As for AKQIMEETYKMEFMYSGVNNKQVV [E19N], the protein stability index was 1.91.

With AKQIMEETYKMEFMYSGVINKQVV [E19I], the protein stability index was 1.54.

On to AKQIMEETYKMEFMYSGVPNKQVV [E19P], for which the protein stability index is 1.56.

On to AKQIMEETYKMEFMYSGVRNKQVV [E19R], for which the protein stability index was found to be 1.95.

In the case of AKQIMEETYKMEFMYSGVQNKQVV [E19Q], the protein stability index turned out to be 1.84.

As to AKQIMEETYKMEFMYSGVDNKQVV [E19D], the protein stability index turned out to be 1.78.

For AKQIMEETYKMEFMYSGVTNKQVV [E19T], the protein stability index was 1.85.

On to AKQIMEETYKMEFMYSGVLNKQVV [E19L], for which the protein stability index is 1.2.

Take AKQIMEETYKMEFMYSGVEVKQVV [N20V]: the protein stability index worked out at 1.17.

As for AKQIMEETYKMEFMYSGVEWKQVV [N20W], the protein stability index is 3.06.

As to AKQIMEETYKMEFMYSGVEDKQVV [N20D], the protein stability index amounted to 1.33.

Take AKQIMEETYKMEFMYSGVEQKQVV [N20Q]: the protein stability index amounted to 2.84.

Regarding AKQIMEETYKMEFMYSGVELKQVV [N20L], the protein stability index came out at 1.29.

Turning to AKQIMEETYKMEFMYSGVEPKQVV [N20P], the protein stability index is 1.72.

Consider AKQIMEETYKMEFMYSGVEHKQVV [N20H], for which the protein stability index is 1.59.

As for AKQIMEETYKMEFMYSGVEGKQVV [N20G], the protein stability index amounted to 2.55.

For the variant AKQIMEETYKMEFMYSGVESKQVV [N20S], the protein stability index was 1.44.

As to AKQIMEETYKMEFMYSGVEYKQVV [N20Y], the protein stability index is 1.73.

AKQIMEETYKMEFMYSGVEFKQVV [N20F]: the protein stability index worked out at 2.86.

Turning to AKQIMEETYKMEFMYSGVETKQVV [N20T], the protein stability index came to 1.36.

As to AKQIMEETYKMEFMYSGVEEKQVV [N20E], the protein stability index was 2.44.

For AKQIMEETYKMEFMYSGVEKKQVV [N20K], the protein stability index came to 1.46.

Variants of B2 are the subject of another series. The description is as above. The note with it: c terminus: a fixed tail appended.
For GGADIPVIKYNVNDKFSFHEVKDN [I6P], the protein stability index worked out at 4.12.

GGADILVIKYNVNDKFSFHEVKDN [I6L]: the protein stability index came to 3.33.

With GGADIMVIKYNVNDKFSFHEVKDN [I6M], the protein stability index stood at 1.92.

As to GGADIQVIKYNVNDKFSFHEVKDN [I6Q], the protein stability index was 3.98.

For the variant GGADIGVIKYNVNDKFSFHEVKDN [I6G], the protein stability index amounted to 4.03.

On to GGADIVVIKYNVNDKFSFHEVKDN [I6V], for which the protein stability index turned out to be 1.77.

Consider GGADIEVIKYNVNDKFSFHEVKDN [I6E], for which the protein stability index amounted to 3.74.

In the case of GGADIAVIKYNVNDKFSFHEVKDN [I6A], the protein stability index was 3.21.

For GGADIRVIKYNVNDKFSFHEVKDN [I6R], the protein stability index worked out at 3.1.

Regarding GGADIKVIKYNVNDKFSFHEVKDN [I6K], the protein stability index turned out to be 3.

GGADIFVIKYNVNDKFSFHEVKDN [I6F]: the protein stability index turned out to be 1.5.

As for GGADIHVIKYNVNDKFSFHEVKDN [I6H], the protein stability index was 2.92.

GGADIDVIKYNVNDKFSFHEVKDN [I6D]: the protein stability index stood at 4.07.

As to GGADITVIKYNVNDKFSFHEVKDN [I6T], the protein stability index turned out to be 2.45.

As for GGADIYVIKYNVNDKFSFHEVKDN [I6Y], the protein stability index came out at 2.23.

Turning to GGADISVIKYNVNDKFSFHEVKDN [I6S], the protein stability index turned out to be 3.63.

Regarding GGADICVIKYNVNDKFSFHEVKDN [I6C], the protein stability index was determined as 1.67.

Regarding GGADIWVIKYNVNDKFSFHEVKDN [I6W], the protein stability index was 1.79.

For the variant GGADINVIKYNVNDKFSFHEVKDN [I6N], the protein stability index came to 3.83.

GDADIIVIKYNVNDKFSFHEVKDN [G2D]: the protein stability index was determined as 2.31.

As to GAADIIVIKYNVNDKFSFHEVKDN [G2A], the protein stability index is 1.69.
